B1: Sl-Apaf-1-CARD (caspase recruitment domain of Spodoptera litura apoptotic protease activating factor-1, 1-88aa) (domain or fragment, UniProt A0A7T6ZKB7 1-88, looked up)
chain: MDKHKRLLLQKYQQDIIDDLDVAYVYDELFAKHVISAEEVDRMFSLTTRIDQTRFLLDSLIRNGTNGTYQVFVDSLQKDYGWLWEKLA
notes: caspase recruitment domain, residues 1-88; Cloned with Nde I and Xho I in pET-22b; also called Sl-Af88; Sl-Apaf-1-CARD domain protein fragment
B2: Sl-caspase5-CARD (caspase recruitment domain of Spodoptera litura caspase-5, 1-132aa) (domain or fragment, UniProt R4I520 1-132, looked up)
chain: MQREHRDAIQSNFSSLVERTDLDSVVTALYEKGVFSEQMIEPYRNNSELERDRKRRLYMDVTRRGPHAFAHLVDTLGELGYWDLARDLDPDSPFSFSSQQRSHPIPQPKPADNDNFRSLSTSNRPRAEPNRI
notes: Sl-caspase-5 of Spodoptera litura (a homologue of mammalian caspase-9; Dronc), GenBank JQ768051; caspase recruitment domain, residues 1-132; Cloned with Nde I and Xho I in pET-22b; also called caspase-5-CARD domain

Assays:
[1] = target: B2; experiment: ITC; Sl-Apaf-1-CARD at 50 µM, Sl-caspase-5-CARD at 450 µM; 10 mM HEPES, 100 mM NaCl, 2 mM DTT, pH 7.4; 20 °C; 20 injections; VP-ITC; which protein was in the cell is not said; conditions: both partners purified
[2] = target: B1; experiment: as above; conditions: both partners purified

Binder | Ka [1] | dH [2] | stoichiometry N [2]
B1 | 1.28e+06 M⁻¹ | – | –
B2 | – | -15.5 kcal/mol | 1
